In data set [1] the test system is T1, hirudin mutein M 1 (I29A L30A).
T1 sequence: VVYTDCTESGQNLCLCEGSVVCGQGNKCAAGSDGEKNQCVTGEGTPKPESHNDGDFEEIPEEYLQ

Data set [2] deals with T2, hirudin mutein M 2 (I29R L30H).
T2 sequence: T1 sequence with A29R, A30H

The results in this text go back to US20060140929.

Where a chain is given by its changes, count along the chain named.

As for thrombin, the results for the Relative activity (ED50 variant/ED50 WT hirudin), chromogenic thrombin cleavage assay in data set [1] and in data set [2] were 1.4 and 1.2, respectively.
